Test [1] addresses T1, GFOGER peptide, GPC(GPP)5GFOGER(GPP)5GPC, cross-linked. The test can be described thus: SPR, Aegyptin over immobilized cross-linked GFOGER peptide, two-state model; Ka1. A general note: Surface plasmon resonance follows binding to a sensor surface in real time, without labels.
Test [2] addresses T2, […] peptide, GPC-(GPP)5-[…]-(GPP)5-GPC-NH2, cross-linked. The test can be described thus: SPR, Aegyptin over immobilized cross-linked RGQOGVMGFO peptide, two-state model.
Test [3] has as its target T2, […] peptide, ….
The target of test [4] is T1, GFOGER peptide, …. Briefly: SPR, Aegyptin over immobilized cross-linked GFOGER peptide, two-state model; Kd1.
Test [5] addresses T2, […] peptide, …. The source holds these as a separate data set.
The target in test [6] is T1, GFOGER peptide, …. The test can be described thus: SPR, Aegyptin over immobilized cross-linked GFOGER peptide, two-state model.

Read-outs that look alike come from different tables or passages of the source.

B1: recombinant Aegyptin, O01949 20-273 (protein)
chain: RPMPEDEEPVAEGGDDDASGESEGEEETTDDAGGDGGEEENEGEEHAGDKDAGGEDTGKEENTGHDDAGEEDAGEEDAGEEDAGEEDAGEEDAEKEEGEKEDAGDDAGSDDGEEDSTGGDEGEDNAEDSKGSEKNDPADTYRQVVALLDKDTKVDHIQSEYLRSALNNDLQSEVRVPVVEAIGRIGDYSKIQGCFKSMGKDVKKVISEEEKKFKSCMSKKKSEYQCSEDSFAAAKSKLSPITSKIKSCVSSKGRHHHHHH
In turn, B1 returned an on-rate (kon) in test [1] of 406000 M⁻¹ s⁻¹. Moreover, in test [2], the dissociation constant Kd amounted to 139 nM, the Kd2 (two-state model) was 0.00194 s⁻¹ and the second Ka of the two-state model was 0.000981 M⁻¹ s⁻¹. Also, in test [3], the koff was determined as 0.013 s⁻¹ and the kon is 61900 M⁻¹ s⁻¹. The molecule further had a koff in test [4] of 0.943 s⁻¹. Moreover, in test [5], the IC50 is 300 nM and the dissociation constant Kd amounted to 139 nM. Moreover, in test [6], the Kd is 2400 nM, the Kd2 (two-state model) was determined as 0.00261 s⁻¹ and the second Ka of the two-state model came to 0.000366 M⁻¹ s⁻¹.

The term kon denotes a measure of how fast the partners come together. Read a high kon as faster complex formation. For orientation: Kd means the free concentration of one partner at which half of the binding sites on the other are occupied at equilibrium, for simple one-to-one binding. A low value points to a tighter complex. The koff is a measure of how fast the partners let go of each other. A high value points to a short-lived complex. A word on the IC50: it is the concentration at which inhibition is half-maximal.

For the origin of these results see patent publication US20130123349A1.
